Measurements from patent US20140011747A1 (WISCONSIN ALUMNI RESEARCH FOUNDATION, published 2014).
Ends that are not written are not given here.

How the values were obtained:
[1] = molecular target: T1, epidermal growth factor receptor (EGFR), endogenous in human cell lines (human, UniProt P00533 25-1210); assay: cell-based or functional assay
[2] = molecular target: T1, epidermal growth factor receptor …; assay: co-immunoprecipitation of mouse syndecan chimeras from HaCat cells, western blot
Description: (FIG. 6A) Mouse syndecan chimeras in which their ectodomains are switched are expressed in HaCat cells, then immunoprecipitated with antibodies specific for the mouse syndecan ectodomains. […] HER2 or EGFR are immunoprecipitated from the lysates directly for comparison.
(§1) Cells were washed once with washing buffer (50 mM Hepes, 50 mM NaCl and 10 mM EDTA, pH 7.4) and lysed for 20 min on ice in 1% Triton X-100 containing a 1:1000 dilution of protease inhibitor mixture set III (Calbiochem) in washing buffer. Cell debris was removed by centrifugation at 20,000 g for 15 min at 4° C. […] Visualization of immune-reactive bands was performed using ECF reagent (GE Healthcare) and scanned on a Typhoon Trio Variable Mode Imager (GE-Healthcare) in blue fluorescence.

[3] = molecular target: T1, epidermal growth factor receptor …; assay: co-immunoprecipitation from lysates of MCF10A and BT474 cells, western blot
Description: as §1

[4] = molecular target: T2, β4^R1733A mutant of the β4 cytoplasmic domain (binding construct) (human, UniProt P16144-2 1677-1752); assay: binding of β4 cytoplasmic domain mutants to syndecan
T2 construct: not shown: 6×His tag and leader of the pTRC-His A vector
T2 sequence (looked up): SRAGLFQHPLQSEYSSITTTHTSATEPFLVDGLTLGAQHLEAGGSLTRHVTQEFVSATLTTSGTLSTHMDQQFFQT

NHIPERAGSGSQVPTEPKKLEENEVIPKRISPVEESEDV [SSTNEGFR synthetic peptide truncated of amino acids 126-131]
activity against EGF-stimulated cell migration, relative to SSTNEGFR [1]: ≥ 100 fold reduction

NHIPERAGSGSQAAAAAAAAAANEVIPKRISPVEESEDVSNKVSM [SSTNEGFR synthetic peptide with amino acids 99-108 mutated to alanine]
activity against EGF-stimulated cell migration, relative to SSTNEGFR [1]: 10 fold reduction

B1: mouse syndecan chimera: mSdc4 with its ectodomain swapped for that of Sdc1 (receptor, UniProt P18828 23-255, looked up)
chain: QIVAVNVPPEDQDGSGDDSDNFSGSGTGALPDTLSRQTPSTWKDVWLLTATPTAPEPTSSNTETAFTSVLPAGEKPEEGEPVLHVEAEPGFTARDKEKEVTTRPRETVQLPITQRASTVRVTTAQAAVTSHPHGGMQPGLHETSAPTAPGQPDHQPPRVEGGGTSVIKEVVEDGTANQLPAGEGSGEQDFTFETSGENTAVAAVEPGLRNQPPVDEGATGASQSLLDRKEVLGVLAALIVGGVVGILFAVFLILLLVYRMKKKDEGSYDLGKKPIYKKAPTNEFYA
notes: extracellular domain;domain: transmembrane and cytoplasmic domains; Expressed in HaCat cells; also called Sdc4 displaying the Sdc1 ectodomain
binding result [2]: no binding

B2: GST-S4ED, recombinant Sdc4 ectodomain fused to GST (other, UniProt P31431 19-145, looked up, not shown: a dimerising Fc or GST)
chain: ESIRETEVIDPQDLLEGRYFSGALPDDEDVVGPGQESDDFELSGSGDLDDLEDSMIGPEVVHPLVPLDNHIPERAGSGSQVPTEPKKLEENEVIPKRISPVEESEDVSNKVSMSSTVQGSNIFERTE
IC50, EGF-stimulated chemotaxis of MCF10A cells or HaCat keratinocytes [1]: 100 to 300 nM

NHIPERAGSGSQVPTEPKKLEENEVIPKRISPVEESEDVSNKVSM [SSTNEGFR, synthetic peptide of amino acids 87-131 of the human Sdc4 ectodomain]
IC50, EGF-stimulated migration of MCF10A cells, scratch wound closure [1]: 100 to 300 nM

B3: syndecan-1 (Sdc1), human, endogenous in human cell lines (receptor, UniProt P18827 23-310, looked up)
chain: QIVATNLPPEDQDGSGDDSDNFSGSGAGALQDITLSQQTPSTWKDTQLLTAIPTSPEPTGLEATAASTSTLPAGEGPKEGEAVVLPEVEPGLTAREQEATPRPRETTQLPTTHLASTTTATTAQEPATSHPHRDMQPGHHETSTPAGPSQADLHTPHTEDGGPSATERAAEDGASSQLPAAEGSGEQDFTFETSGENTAVVAVEPDRRNQSPVDQGATGASQGLLDRKEVLGGVIAGGLVGLIFAVCLVGFMLYRMKKKDEGSYSLEEPKQANGGAYQKPTKQEEFYA
notes: whole, on cells; Used as the comparison for Sdc4 in co-immunoprecipitation
binding result [3]: no binding

B4: GST-S1CD, Sdc1 cytoplasmic domain fused to GST (other)
chain: {GST}-RMKKKDEGSYSLEEPKQANGGAYQKPTKQEEFYA
notes: The result sentences say only Sdc1; not shown: glutathione S-transferase (GST) fusion partner
binding result [4]: no binding
